Results on six compounds are retold here after US20240115729A1, “COMPOSITIONS AND METHODS FOR TARGETED ANTIFIBROTIC THERAPY IN CHRONIC PANCREATITIS” (University of Virginia Patent Foundation, priority 2021, published 2024).

Data set [1] addresses CD31 (mouse) (UniProt Q08481). Briefly: IF colocalization (JACoP) of VT680 phage with marker, CP mouse pancreas sections.
Data set [2] has as its target collagen IIIa (mouse) (UniProt P08121). The data set is described as above.
Data set [3] concerns the target F4/80 (mouse) (UniProt Q61549). The description is as above.
The target of data set [4] is cytokeratin 7 (CK-7) (mouse) (UniProt Q9DCV7). Described as above.
For data set [5], the target named is carboxypeptidase A1 (CPA1) (mouse) (UniProt Q7TPZ8). The description is as above.
For data set [6], the system named is caerulein-induced CP mice. As to the kind of experiment: Antifibrotic efficacy of targeted delivery of apigenin in caerulein-induced CP mice (H&E, picrosirius red, fibronectin). The format is in vivo, mouse (C57BL/6J). As to conditions: CP mice pancreas after 3-week treatment; free drug 2 mg/kg oral 6 days per week, liposomes 6 mg/kg i.v. twice per week. The protocol: Apigenin treatments lasted for 3 weeks for the remaining 3 weeks of caerulein induction. […] Pancreata were perfused, harvested, and paraffin-embedded for immunohistochemistry staining. Livers were perfused, harvested, and partially paraffin-embedded for histology staining. […] Singh et al., 2012). […] The quantification of picrosirius red was determined by Image J, using threshold applied on the red composites of the RGB images. […] Fibronectin expression was quantified using the positive pixel count function on QuPath software (Bankhead et al., 2017). […] Serum alanine aminotransferase (ALT) and blood urea nitrogen (BUN) were determined on […] 8008 Chemistry Analyzer (IDEXX, Westbrook, Maine, United States of America). […] To test the antifibrotic efficacy of targeted liposomes, we evaluated the pharmacodynamics of apigenin in the free drug form, encapsulated in non-targeted liposomes and in ECM liposomes (FIG. 11A). ECM liposomes without drug loading were included in the study as vehicle control. C57BL/6J mice were injected with caerulein 14 days before treatment started to establish inflammation in the pancreas. […] FIGS. 11D and 11G). […] FIGS. 11C and 11F).

For data set [7] the following is noted: reported on PubChem; cited from earlier work.

Sequence of UniProt Q61549 (Q61549 28-931): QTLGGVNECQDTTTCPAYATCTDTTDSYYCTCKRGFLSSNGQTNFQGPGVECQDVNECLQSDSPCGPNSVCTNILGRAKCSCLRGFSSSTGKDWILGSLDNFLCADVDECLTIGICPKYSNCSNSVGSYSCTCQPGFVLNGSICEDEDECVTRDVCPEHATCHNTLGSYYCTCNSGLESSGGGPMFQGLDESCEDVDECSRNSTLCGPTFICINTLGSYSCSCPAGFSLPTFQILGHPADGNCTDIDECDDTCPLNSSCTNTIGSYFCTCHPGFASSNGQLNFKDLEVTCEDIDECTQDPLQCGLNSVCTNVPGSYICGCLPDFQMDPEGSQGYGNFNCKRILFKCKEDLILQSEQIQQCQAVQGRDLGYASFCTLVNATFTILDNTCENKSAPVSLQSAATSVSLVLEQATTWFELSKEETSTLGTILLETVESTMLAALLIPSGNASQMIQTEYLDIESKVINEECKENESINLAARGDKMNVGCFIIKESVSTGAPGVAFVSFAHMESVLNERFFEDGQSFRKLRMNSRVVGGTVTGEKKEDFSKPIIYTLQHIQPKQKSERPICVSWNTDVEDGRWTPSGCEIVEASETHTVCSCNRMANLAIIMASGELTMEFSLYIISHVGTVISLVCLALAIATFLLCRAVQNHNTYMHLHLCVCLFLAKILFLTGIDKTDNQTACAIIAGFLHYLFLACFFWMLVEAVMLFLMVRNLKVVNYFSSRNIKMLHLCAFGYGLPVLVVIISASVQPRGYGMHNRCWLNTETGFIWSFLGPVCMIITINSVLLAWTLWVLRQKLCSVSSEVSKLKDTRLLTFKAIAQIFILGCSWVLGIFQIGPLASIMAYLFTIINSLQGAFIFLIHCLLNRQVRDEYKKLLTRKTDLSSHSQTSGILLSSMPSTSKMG
Sequence of UniProt Q9DCV7 (Q9DCV7 2-457): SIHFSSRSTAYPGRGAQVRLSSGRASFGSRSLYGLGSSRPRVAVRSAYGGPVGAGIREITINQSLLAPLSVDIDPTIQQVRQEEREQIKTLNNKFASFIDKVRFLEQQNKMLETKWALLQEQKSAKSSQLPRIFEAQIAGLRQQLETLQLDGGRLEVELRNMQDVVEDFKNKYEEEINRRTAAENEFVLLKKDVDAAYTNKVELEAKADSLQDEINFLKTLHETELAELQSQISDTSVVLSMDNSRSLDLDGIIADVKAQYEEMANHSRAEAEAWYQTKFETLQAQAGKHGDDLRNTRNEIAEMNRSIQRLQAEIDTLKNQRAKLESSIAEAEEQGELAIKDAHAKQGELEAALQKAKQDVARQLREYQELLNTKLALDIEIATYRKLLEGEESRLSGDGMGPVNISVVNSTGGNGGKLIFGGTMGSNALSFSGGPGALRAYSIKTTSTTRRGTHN
Sequence of UniProt P08121 (P08121 155-1219): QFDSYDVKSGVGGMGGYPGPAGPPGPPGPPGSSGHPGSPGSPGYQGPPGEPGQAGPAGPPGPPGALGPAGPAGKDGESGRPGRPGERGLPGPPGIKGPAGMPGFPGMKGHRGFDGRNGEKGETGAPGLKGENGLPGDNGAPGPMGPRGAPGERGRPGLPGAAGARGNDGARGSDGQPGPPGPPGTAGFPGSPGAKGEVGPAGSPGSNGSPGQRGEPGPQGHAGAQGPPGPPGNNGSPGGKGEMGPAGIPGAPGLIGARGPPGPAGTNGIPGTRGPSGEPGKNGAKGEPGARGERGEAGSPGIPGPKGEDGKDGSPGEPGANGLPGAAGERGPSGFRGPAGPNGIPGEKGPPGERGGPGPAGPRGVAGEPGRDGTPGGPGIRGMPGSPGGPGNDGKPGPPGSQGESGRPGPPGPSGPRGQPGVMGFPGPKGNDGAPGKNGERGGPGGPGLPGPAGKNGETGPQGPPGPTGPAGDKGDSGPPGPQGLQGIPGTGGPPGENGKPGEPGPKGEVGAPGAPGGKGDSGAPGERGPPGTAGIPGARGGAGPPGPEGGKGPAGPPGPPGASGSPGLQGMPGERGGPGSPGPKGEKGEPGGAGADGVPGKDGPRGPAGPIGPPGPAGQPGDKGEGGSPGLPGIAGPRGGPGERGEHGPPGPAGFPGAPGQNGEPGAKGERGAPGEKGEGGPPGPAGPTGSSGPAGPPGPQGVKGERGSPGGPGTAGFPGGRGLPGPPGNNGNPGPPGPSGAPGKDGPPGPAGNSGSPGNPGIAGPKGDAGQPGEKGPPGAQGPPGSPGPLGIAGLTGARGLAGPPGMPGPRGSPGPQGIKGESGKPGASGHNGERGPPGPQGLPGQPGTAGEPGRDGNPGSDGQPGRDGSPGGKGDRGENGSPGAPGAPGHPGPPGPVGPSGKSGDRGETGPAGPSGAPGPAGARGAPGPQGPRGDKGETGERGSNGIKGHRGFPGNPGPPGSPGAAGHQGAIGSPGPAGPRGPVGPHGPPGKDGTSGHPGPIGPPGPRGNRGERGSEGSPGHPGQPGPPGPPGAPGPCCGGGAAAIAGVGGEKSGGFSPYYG
Sequence of UniProt Q7TPZ8 (Q7TPZ8 111-419): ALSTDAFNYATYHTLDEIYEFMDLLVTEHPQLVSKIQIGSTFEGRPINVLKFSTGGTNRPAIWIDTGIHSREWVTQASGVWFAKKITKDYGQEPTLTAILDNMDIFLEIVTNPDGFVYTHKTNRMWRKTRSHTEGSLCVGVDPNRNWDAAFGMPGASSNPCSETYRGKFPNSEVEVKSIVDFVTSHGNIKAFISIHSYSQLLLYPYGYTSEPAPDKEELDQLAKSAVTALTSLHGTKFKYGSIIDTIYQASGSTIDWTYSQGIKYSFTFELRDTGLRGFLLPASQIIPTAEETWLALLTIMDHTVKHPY
Sequence of UniProt Q08481 (Q08481 18-727): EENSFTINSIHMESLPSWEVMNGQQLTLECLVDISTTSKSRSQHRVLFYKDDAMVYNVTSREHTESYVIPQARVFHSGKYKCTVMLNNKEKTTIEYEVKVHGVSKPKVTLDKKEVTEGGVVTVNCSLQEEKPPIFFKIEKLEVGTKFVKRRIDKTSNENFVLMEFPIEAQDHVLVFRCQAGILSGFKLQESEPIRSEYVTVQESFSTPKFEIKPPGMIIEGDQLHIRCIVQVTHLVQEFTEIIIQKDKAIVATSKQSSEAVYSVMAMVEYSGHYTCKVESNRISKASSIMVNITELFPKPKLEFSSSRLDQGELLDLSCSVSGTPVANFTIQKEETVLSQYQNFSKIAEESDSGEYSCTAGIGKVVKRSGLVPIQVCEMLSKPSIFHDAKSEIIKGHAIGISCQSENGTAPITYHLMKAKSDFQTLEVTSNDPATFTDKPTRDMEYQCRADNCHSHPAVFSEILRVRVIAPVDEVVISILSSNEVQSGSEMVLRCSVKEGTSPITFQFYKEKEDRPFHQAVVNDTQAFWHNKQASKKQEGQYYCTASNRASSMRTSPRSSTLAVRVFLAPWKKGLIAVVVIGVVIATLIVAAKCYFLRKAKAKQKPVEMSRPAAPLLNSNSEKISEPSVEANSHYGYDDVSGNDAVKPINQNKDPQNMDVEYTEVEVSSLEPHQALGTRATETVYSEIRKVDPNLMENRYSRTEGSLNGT

As to “KTYVPTT (SEQ ID NO: 14) phage clone (peptide)”, the mean Manders' correlation coefficient (MCC), fraction of phage overlapping cell marker in data set [1] is 0.2; in data set [2] it was 0.23; in data set [3], 0.31; in data set [4], 0.06; in data set [5], 0.26.
The like results for “MNSIAIP (SEQ ID NO: 20) phage clone (peptide)” were, in that order, 0.24, 0.34, 0.37, 0.05 and 0.63.
In the case of “HPYSPLR (SEQ ID NO: 11) phage clone (peptide)”, the mean Manders' correlation coefficient (MCC), fraction of phage overlapping cell marker in data set [1] is 0.35; in data set [2], 0.27; in data set [3], 0.41; in data set [4], 0.08; in data set [5], 0.25.
“SLPLGPM (SEQ ID NO: 26) phage clone (peptide)”: the mean Manders' correlation coefficient (MCC), fraction of phage overlapping cell marker in data set [1] came to 0.25; in data set [2], 0.23; in data set [3], 0.49; in data set [4] it was 0.06; in data set [5], 0.35.
“SNSQDLH (SEQ ID NO: 28) phage clone (peptide)”: the mean Manders' correlation coefficient (MCC), fraction of phage overlapping cell marker in data set [1] amounted to 0.12; in data set [2], 0.33; in data set [3], 0.8; in data set [4], 0.14; in data set [5], 0.23.
The term Log P denotes the decadic logarithm of the partition coefficient of the neutral form, usually between octanol and water. `O=c1cc(-c2ccc(O)cc2)oc2cc(O)cc(O)c12` [Apigenin, 4′,5,7-trihydroxyflavone]: the “collagen deposition (Picrosirius red-positive area)” value in data set [6] turned out to be 24.90 % area. Further, in data set [7], the “Charge (ph 7.4)” value is reported as 0, the “Log P” value is 1.7, the “Water Solubility” value was 183 mg/mL and the pKa1 is on record as 7.12. Moreover, the pKa2 in data set [7] is 8.10.
